We go through 19 molecules from publication PMC314469, “Protein Interaction Networks by Proteome Peptide Scanning” (PLoS Biology, 2004).

T1: Yfr024 SH3 (LSB3_YEAST), P43603
T1 chain: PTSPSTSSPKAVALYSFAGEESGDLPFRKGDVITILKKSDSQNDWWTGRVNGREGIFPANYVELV

T2: Rvs167 SH3 (RV167_YEAST), P39743
T2 chain: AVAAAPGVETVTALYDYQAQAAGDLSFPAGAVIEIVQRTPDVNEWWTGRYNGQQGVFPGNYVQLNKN

T3: Yhr016c SH3 (YSC84_YEAST), P32793
T3 chain: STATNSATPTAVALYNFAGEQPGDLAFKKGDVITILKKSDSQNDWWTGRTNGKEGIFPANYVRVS

T4: Boi1 SH3 (BOI1_YEAST), P38041
T4 chain: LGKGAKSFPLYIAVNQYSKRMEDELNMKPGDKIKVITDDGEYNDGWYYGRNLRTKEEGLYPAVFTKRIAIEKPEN

T5: Boi2 SH3 (BOI2_YEAST), P39969
T5 chain: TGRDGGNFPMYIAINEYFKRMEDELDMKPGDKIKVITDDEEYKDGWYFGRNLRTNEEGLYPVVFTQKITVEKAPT

The first test has as its target T1, Yfr024 SH3 (LSB3_YEAST), P43603. The test is described as follows: SPOT array.
IFDPQDPYRRAQQF [YHR150W 496-509] came in with a normalised SPOT signal, Boehringer light units (BLU); mean over the file's lines of this peptide of 59.9.
On the same count and under the same terms, in the case of IAYPGDPLRFHSHL [YAR008W 207-220] it was 93.2; in that of IFGPFGPMKEVKIL [YDR432W 144-157], 195; in that of IFGPSFPFRSHIDV [YDL224C 170-183], 9630.
Still for that read-out and setting: in the case of HSEPAIPYRETFLS [YNL163C 746-759] it was 92.9.
Still for that read-out and setting: to IEQPFGPPKITKDG [YLR259C 61-74] belongs 149; to IELPHDPHKHFHRD [YNL091W 543-556], 0; to IFNPQNPLKTGFEP [YMR087W 156-169], 170.
HTPPLNPSKKSASI [YOR371C 699-712] gave a normalised SPOT signal, Boehringer light units (BLU); mean over the file's lines of this peptide of 15.3.
The same measure, in the same setting: to IELPTQPVRKNPEA [YOR042W 147-160] belongs 550.
Still for that read-out and setting: in the case of IAYPFYPFKKLGRQ [YGR165W 32-45] it was 813; in that of IAHPVRPHRAITMT [YBR276C 631-644], 2660.
Same read-out and setting: in the case of IAAPKKPRKPRQTK [YGL025C 241-254] it was 3170.
Molecule HSSPIAPSKAKRQR [YCR065W 64-77] returned a normalised SPOT signal, Boehringer light units (BLU); mean over the file's lines of this peptide of 1350.
On the same count and under the same terms, to IFFPNEPIRFVYPY [YPR072W 415-428] belongs 209; to IEVPQSPTKNRVKV [YIL150C 61-74], 176; to HSTPVTPRRLFTSQ [YGL003C 171-184], 16700.
Same read-out and setting: in the case of IFPPLNPARTSLNS [YDR312W 172-185] it was 5080; in that of HRGPRRPQKNRYNT [YMR280C 1394-1407], 1710.

The target in a further test is T2, Rvs167 SH3 (RV167_YEAST), P39743. Put plainly: SPOT array.
On to IFDPQDPYRRAQQF [YHR150W 496-509], for which the normalised SPOT signal, Boehringer light units (BLU); mean over the file's lines of this peptide came out at 52.4.
IAYPGDPLRFHSHL [YAR008W 207-220] displayed a normalised SPOT signal, Boehringer light units (BLU); mean over the file's lines of this peptide of 18.3.
The same measure, in the same setting: in the case of IFGPFGPMKEVKIL [YDR432W 144-157] it was 56.3; in that of IFGPSFPFRSHIDV [YDL224C 170-183], 391; in that of HSEPAIPYRETFLS [YNL163C 746-759], 35.1.
Same read-out and setting: to IEQPFGPPKITKDG [YLR259C 61-74] belongs 28.2; to IELPHDPHKHFHRD [YNL091W 543-556], 20.5; to IFNPQNPLKTGFEP [YMR087W 156-169], 61.8.
Still for that read-out and setting: in the case of HTPPLNPSKKSASI [YOR371C 699-712] it was 28.1; in that of IELPTQPVRKNPEA [YOR042W 147-160], 47.
As for IAYPFYPFKKLGRQ [YGR165W 32-45], the normalised SPOT signal, Boehringer light units (BLU); mean over the file's lines of this peptide stood at 16.3.
On the same count and under the same terms, in the case of IAHPVRPHRAITMT [YBR276C 631-644] it was 86.7.
As to IAAPKKPRKPRQTK [YGL025C 241-254], the normalised SPOT signal, Boehringer light units (BLU); mean over the file's lines of this peptide is 95.9.
Same read-out and setting: in the case of HSSPIAPSKAKRQR [YCR065W 64-77] it was 561; in that of IFFPNEPIRFVYPY [YPR072W 415-428], 65.5.
In turn, IEVPQSPTKNRVKV [YIL150C 61-74] returned a normalised SPOT signal, Boehringer light units (BLU); mean over the file's lines of this peptide of 27.2.
Same read-out and setting: in the case of HSTPVTPRRLFTSQ [YGL003C 171-184] it was 282; in that of IFPPLNPARTSLNS [YDR312W 172-185], 134.
Still for that read-out and setting: to HRGPRRPQKNRYNT [YMR280C 1394-1407] belongs 60.7.

For a further test, the target named is T3, Yhr016c SH3 (YSC84_YEAST), P32793. The test is described as follows: SPOT array.
IFDPQDPYRRAQQF [YHR150W 496-509] registered a normalised SPOT signal, Boehringer light units (BLU); mean over the file's lines of this peptide of 316.
Still for that read-out and setting: to IAYPGDPLRFHSHL [YAR008W 207-220] belongs 196.
On the same count and under the same terms, in the case of IFGPFGPMKEVKIL [YDR432W 144-157] it was 260; in that of IFGPSFPFRSHIDV [YDL224C 170-183], 6610.
Still for that read-out and setting: to HSEPAIPYRETFLS [YNL163C 746-759] belongs 634; to IEQPFGPPKITKDG [YLR259C 61-74], 51.4; to IELPHDPHKHFHRD [YNL091W 543-556], 77.2.
On to IFNPQNPLKTGFEP [YMR087W 156-169], for which the normalised SPOT signal, Boehringer light units (BLU); mean over the file's lines of this peptide came to 122.
The molecule HTPPLNPSKKSASI [YOR371C 699-712] registered a normalised SPOT signal, Boehringer light units (BLU); mean over the file's lines of this peptide of 90.5.
The same measure, in the same setting: in the case of IELPTQPVRKNPEA [YOR042W 147-160] it was 112.
Still for that read-out and setting: in the case of IAYPFYPFKKLGRQ [YGR165W 32-45] it was 230; in that of IAHPVRPHRAITMT [YBR276C 631-644], 225.
Still for that read-out and setting: to IAAPKKPRKPRQTK [YGL025C 241-254] belongs 126; to HSSPIAPSKAKRQR [YCR065W 64-77], 142; to IFFPNEPIRFVYPY [YPR072W 415-428], 238.
The molecule IEVPQSPTKNRVKV [YIL150C 61-74] gave a normalised SPOT signal, Boehringer light units (BLU); mean over the file's lines of this peptide of 201.
Still for that read-out and setting: to HSTPVTPRRLFTSQ [YGL003C 171-184] belongs 6510; to IFPPLNPARTSLNS [YDR312W 172-185], 829.
Still for that read-out and setting: to HRGPRRPQKNRYNT [YMR280C 1394-1407] belongs 161.

The next test addresses T4, Boi1 SH3 (BOI1_YEAST), P38041. Put plainly: SPOT array.
In the case of IFDPQDPYRRAQQF [YHR150W 496-509], the normalised SPOT signal, Boehringer light units (BLU); mean over the file's lines of this peptide came to 53.2.
Consider IAYPGDPLRFHSHL [YAR008W 207-220], for which the normalised SPOT signal, Boehringer light units (BLU); mean over the file's lines of this peptide is 12.
IFGPFGPMKEVKIL [YDR432W 144-157] registered a normalised SPOT signal, Boehringer light units (BLU); mean over the file's lines of this peptide of 63.3.
Regarding IFGPSFPFRSHIDV [YDL224C 170-183], the normalised SPOT signal, Boehringer light units (BLU); mean over the file's lines of this peptide stood at 138.
Still for that read-out and setting: in the case of HSEPAIPYRETFLS [YNL163C 746-759] it was 83.3; in that of IEQPFGPPKITKDG [YLR259C 61-74], 119; in that of IELPHDPHKHFHRD [YNL091W 543-556], 126.
In the case of IFNPQNPLKTGFEP [YMR087W 156-169], the normalised SPOT signal, Boehringer light units (BLU); mean over the file's lines of this peptide is 95.5.
Still for that read-out and setting: in the case of HTPPLNPSKKSASI [YOR371C 699-712] it was 107; in that of IELPTQPVRKNPEA [YOR042W 147-160], 41.7.
The same measure, in the same setting: in the case of IAYPFYPFKKLGRQ [YGR165W 32-45] it was 75.8.
Still for that read-out and setting: in the case of IAHPVRPHRAITMT [YBR276C 631-644] it was 3310.
Consider IAAPKKPRKPRQTK [YGL025C 241-254], for which the normalised SPOT signal, Boehringer light units (BLU); mean over the file's lines of this peptide was 49.7.
For HSSPIAPSKAKRQR [YCR065W 64-77], the normalised SPOT signal, Boehringer light units (BLU); mean over the file's lines of this peptide stood at 673.
On the same count and under the same terms, to IFFPNEPIRFVYPY [YPR072W 415-428] belongs 30.1.
The same measure, in the same setting: in the case of IEVPQSPTKNRVKV [YIL150C 61-74] it was 130; in that of HSTPVTPRRLFTSQ [YGL003C 171-184], 2290.
On the same count and under the same terms, in the case of IFPPLNPARTSLNS [YDR312W 172-185] it was 72.9; in that of HRGPRRPQKNRYNT [YMR280C 1394-1407], 9.8.

The next test addresses T5, Boi2 SH3 (BOI2_YEAST), P39969. The test is described as follows: SPOT array.
Molecule IFDPQDPYRRAQQF [YHR150W 496-509] came in with a normalised SPOT signal, Boehringer light units (BLU); mean over the file's lines of this peptide of 51.8.
Same read-out and setting: in the case of IAYPGDPLRFHSHL [YAR008W 207-220] it was 143; in that of IFGPFGPMKEVKIL [YDR432W 144-157], 23.4.
The same measure, in the same setting: to IFGPSFPFRSHIDV [YDL224C 170-183] belongs 31.8; to HSEPAIPYRETFLS [YNL163C 746-759], 14.6; to IEQPFGPPKITKDG [YLR259C 61-74], 26.4.
Same read-out and setting: in the case of IELPHDPHKHFHRD [YNL091W 543-556] it was 23.2; in that of IFNPQNPLKTGFEP [YMR087W 156-169], 57.1; in that of HTPPLNPSKKSASI [YOR371C 699-712], 82.2.
IELPTQPVRKNPEA [YOR042W 147-160] yielded a normalised SPOT signal, Boehringer light units (BLU); mean over the file's lines of this peptide of 20.1.
Still for that read-out and setting: to IAYPFYPFKKLGRQ [YGR165W 32-45] belongs 32.7; to IAHPVRPHRAITMT [YBR276C 631-644], 145; to IAAPKKPRKPRQTK [YGL025C 241-254], 53.7.
HSSPIAPSKAKRQR [YCR065W 64-77] displayed a normalised SPOT signal, Boehringer light units (BLU); mean over the file's lines of this peptide of 170.
As to IFFPNEPIRFVYPY [YPR072W 415-428], the normalised SPOT signal, Boehringer light units (BLU); mean over the file's lines of this peptide amounted to 36.
Still for that read-out and setting: to IEVPQSPTKNRVKV [YIL150C 61-74] belongs 19.2; to HSTPVTPRRLFTSQ [YGL003C 171-184], 77.8; to IFPPLNPARTSLNS [YDR312W 172-185], 31.3.
On the same count and under the same terms, in the case of HRGPRRPQKNRYNT [YMR280C 1394-1407] it was 61.
